According to US20180142226:
Where a chain is given by its changes, count along the chain named. Numbers in names are those of the source.

T1: PFPQPQLPY peptide
T1 chain: PFPQPQLPY

T2: PFPQPQQPF peptide
T2 chain: PFPQPQQPF

B1: Kuma070 (protein)
chain: AAPTAYTPLDVAQAYQFPEGLDGQGQCIAIIELGGGYDEASLAQYFASLGVPAPQVVSVSVDGASNQPTGDPKGPDGEVTLDIEVAGALAPGAKFAVYFAPDTTAGFLDAITTAIHDPTLKPSVVSISWAMPEDSWTSAAIAAMNRAFLDAAALGVTVLAAAGDSGSTGGEQDGLYHVFFPAASPYVLACGGTRLVASGGRIAQETVWNQGPDGGATGGGVSRIFPLPAWQEHANVPPSANPGASSGRGVPDLAGNADPQTGYEVVIDGEATVTGGTSAVAPLFAALVARINQKLGKAVGYLNPTLYQLPADVFHDITEGNNDIANRAQIYQAGPGWDPCTGLGSPIGVRLLQALLPSASQPQPGSTENLYFQSGALEHHHHHH
B2: Kuma062 (protein)
chain: AAPTAYTPLDVAQAYQFPEGLDGQGQCIAIIELGGGYDEASLAQYFASLGVPAPQVVSVSVDGASNQPTGDPEGPDGEVTLDIEVAGALAPGAKFAVYFAPDTTAGFLDAITTAIHDPTLKPSVVSISWSMPEDSWTSAAIAAMNRAFLDAAALGVTVLAAAGDQGSTSGEQDGLYHVHFPAASPYVLACGGTRLVASGGRIAQETVWNQGPDGGATGGGVSRIFPLPAWQEHANVPPSANPGASSGRGVPDLAGNADPQTGYEVVIDGEATVTGGTSAVAPLFAALVARINQKLGKAVGYLNPTLYQLPADVFHDITEGNNDIANRAQIYQAGPGWDPCTGLGSPIGVRLLQALLPSASQPQP
B3: Kuma011-I463Q (protein)
chain: AAPTAYTPLDVAQAYQFPEGLDGQGQCIAIIELGGGYDEASLAQYFASLGVPAPQVVSVSVDGASNQPTGDPKGPDGEVELDIEVAGALAPGAKFAVYFAPDTTAGFLDAITTAIHDPTLKPSVVSISWSGPEDSWTSAAIAAMNRAFLDAAALGVTVLAAAGDSGSTGGEQDGLYHVHFPAASPYVLACGGTRLVASGGRIAQETVWNDGPDGGATGGGVSRIFPLPAWQEHANVPPSANPGASSGRGVPDLAGNADPATGYEVVIDGEATVQGGTSAVAPLFAALVARINQKLGKAVGYLNPTLYQLPADVFHDITEGNNDIANRAQIYQAGPGWDPCTGLGSPIGVRLLQALLPSASQPQ
B4: Kuma011-G358S (protein)
chain: B3 chain with G169S, Q274I
B5: Kuma011-D399Q (protein)
chain: B3 chain with D210Q, Q274I
B6: Kuma011-S354A (protein)
chain: B3 chain with S165A, Q274I
B7: Kuma011-I463M (protein)
chain: B3 chain with Q274M
B8: Kuma011-D402Q (protein)
chain: B3 chain with D213Q, Q274I
B9: Kuma011-G358N (protein)
chain: B3 chain with G169N, Q274I
B10: Kuma011-D402S (protein)
chain: B3 chain with D213S, Q274I
B11: Kuma011-L270V (protein)
chain: B3 chain with L81V, Q274I
B12: Kuma011-H368Q (protein)
chain: B3 chain with H179Q, Q274I
B13: Kuma011-I463V (protein)
chain: B3 chain with Q274V
B14: Kuma011-I463R (protein)
chain: B3 chain with Q274R
B15: Kuma011-I463T (protein)
chain: B3 chain with Q274T
B16: Kuma011-V268S (protein)
chain: B3 chain with V79S, Q274I
B17: Kuma011-H368F (protein)
chain: B3 chain with H179F, Q274I
B18: Kuma011-T461R (protein)
chain: B3 chain with T272R, Q274I
B19: Kuma011-A449E (protein)
chain: B3 chain with A260E, Q274I
B20: Kuma011-G358T (protein)
chain: B3 chain with G169T, Q274I
B21: Kuma010/011 A449N (protein)
chain: B3 chain with A260N, Q274I
B22: Kuma011-S354Y (protein)
chain: B3 chain with S165Y, Q274I
B23: Kuma011-S354R (protein)
chain: B3 chain with S165R, Q274I
B24: Kuma011-I463A (protein)
chain: B3 chain with Q274A
B25: Kuma011-L270T (protein)
chain: B3 chain with L81T, Q274I
B26: Kuma011-K262E (protein)
chain: B3 chain with K73E, Q274I
B27: Kuma011-S354E (protein)
chain: B3 chain with S165E, Q274I
B28: Kuma011-V268T (protein)
chain: B3 chain with V79T, Q274I
B29: Kuma011-V268A (protein)
chain: B3 chain with V79A, Q274I
B30: Kuma011-T406S (protein)
chain: B3 chain with T217S, Q274I
B31: Kuma011-S354Q (protein)
chain: B3 chain with S165Q, Q274I
B32: Kuma011-I463L (protein)
chain: B3 chain with Q274L
B33: Kuma011-E269T (protein)
chain: B3 chain with E80T, Q274I
B34: Kuma011-L270A (protein)
chain: B3 chain with L81A, Q274I
B35: Kuma011-G358Q (protein)
chain: B3 chain with G169Q, Q274I
B36: Kuma010/011 S319A (protein)
chain: B3 chain with S130A, Q274I
B37: Kuma011-E269L (protein)
chain: B3 chain with E80L, Q274I

The proteins below were run against DQ2.5-glia-α1a.
For B1, the “Activity Improvement over Background (Kuma040)” value was 2-3x (PQL).

The proteins below were run against DQ2.5-glia-ω1.
For B2, the “detection of full-length peptide and of the PFPQPQ breakdown product over time” value was “Kuma062 demonstrates a higher level of enzymatic activity than Kuma030 or Kuma040”.
In the case of B1, the “Activity Improvement over Background (Kuma040)” value is reported as 2-4x (PQQ).

Target: T1, PFPQPQLPY peptide
With B3 the “% Improvement on PFPQPQLPY (SEQ ID NO: 67)” value was 129%.
For B4, the “% Improvement on PFPQPQLPY (SEQ ID NO: 67)” value was 331%.
B5 was tested, and the “% Improvement on PFPQPQLPY (SEQ ID NO: 67)” value was 149%.
In the case of B6, the “% Improvement on PFPQPQLPY (SEQ ID NO: 67)” value is reported as 152%.
In the case of B7, the “% Improvement on PFPQPQLPY (SEQ ID NO: 67)” value is reported as 123%.
For B8, the “% Improvement on PFPQPQLPY (SEQ ID NO: 67)” value was 164%.
B9 was tested, and the “% Improvement on PFPQPQLPY (SEQ ID NO: 67)” value was 120%.
B10 was tested, and the “% Improvement on PFPQPQLPY (SEQ ID NO: 67)” value was 94%.
In the case of B11, the “% Improvement on PFPQPQLPY (SEQ ID NO: 67)” value is reported as 474%.
In the case of B12, the “% Improvement on PFPQPQLPY (SEQ ID NO: 67)” value is reported as 199%.
With B13 the “% Improvement on PFPQPQLPY (SEQ ID NO: 67)” value was 256%.
B14 was tested, and the “% Improvement on PFPQPQLPY (SEQ ID NO: 67)” value was 29%.
In the case of B15, the “% Improvement on PFPQPQLPY (SEQ ID NO: 67)” value is reported as 130%.
With B16 the “% Improvement on PFPQPQLPY (SEQ ID NO: 67)” value was 104%.
For B17, the “% Improvement on PFPQPQLPY (SEQ ID NO: 67)” value was 334%.
With B18 the “% Improvement on PFPQPQLPY (SEQ ID NO: 67)” value was 120%.
With B19 the “% Improvement on PFPQPQLPY (SEQ ID NO: 67)” value was 149%.
B20 was tested, and the “% Improvement on PFPQPQLPY (SEQ ID NO: 67)” value was 283%.
With B21 the “% Improvement on PFPQPQLPY (SEQ ID NO: 67)” value was 119%.
With B22 the “% Improvement on PFPQPQLPY (SEQ ID NO: 67)” value was 46%.
B23 was tested, and the “% Improvement on PFPQPQLPY (SEQ ID NO: 67)” value was 109%.
With B24 the “% Improvement on PFPQPQLPY (SEQ ID NO: 67)” value was 51%.
With B25 the “% Improvement on PFPQPQLPY (SEQ ID NO: 67)” value was 307%.
B26 was tested, and the “% Improvement on PFPQPQLPY (SEQ ID NO: 67)” value was 109%.
B27 was tested, and the “% Improvement on PFPQPQLPY (SEQ ID NO: 67)” value was 124%.
In the case of B28, the “% Improvement on PFPQPQLPY (SEQ ID NO: 67)” value is reported as 127%.
For B29, the “% Improvement on PFPQPQLPY (SEQ ID NO: 67)” value was 107%.
For B30, the “% Improvement on PFPQPQLPY (SEQ ID NO: 67)” value was 84%.
With B31 the “% Improvement on PFPQPQLPY (SEQ ID NO: 67)” value was 145%.
B32 was tested, and the “% Improvement on PFPQPQLPY (SEQ ID NO: 67)” value was 124%.
B33 was tested, and the “% Improvement on PFPQPQLPY (SEQ ID NO: 67)” value was 263%.
For B34, the “% Improvement on PFPQPQLPY (SEQ ID NO: 67)” value was 203%.
For B35, the “% Improvement on PFPQPQLPY (SEQ ID NO: 67)” value was 147%.
In the case of B36, the “% Improvement on PFPQPQLPY (SEQ ID NO: 67)” value is reported as 154%.
For B37, the “% Improvement on PFPQPQLPY (SEQ ID NO: 67)” value was 113%.

Target: T2, PFPQPQQPF peptide
For B3, the “% Improvement on PFPQPQQPF (SEQ ID NO: 68)” value was 69%.
With B4 the “% Improvement on PFPQPQQPF (SEQ ID NO: 68)” value was 224%.
B5 was tested, and the “% Improvement on PFPQPQQPF (SEQ ID NO: 68)” value was 208%.
In the case of B6, the “% Improvement on PFPQPQQPF (SEQ ID NO: 68)” value is reported as 140%.
In the case of B7, the “% Improvement on PFPQPQQPF (SEQ ID NO: 68)” value is reported as 53%.
In the case of B8, the “% Improvement on PFPQPQQPF (SEQ ID NO: 68)” value is reported as 111%.
B9 was tested, and the “% Improvement on PFPQPQQPF (SEQ ID NO: 68)” value was 99%.
For B10, the “% Improvement on PFPQPQQPF (SEQ ID NO: 68)” value was 108%.
For B11, the “% Improvement on PFPQPQQPF (SEQ ID NO: 68)” value was 61%.
With B12 the “% Improvement on PFPQPQQPF (SEQ ID NO: 68)” value was 195%.
For B13, the “% Improvement on PFPQPQQPF (SEQ ID NO: 68)” value was 141%.
For B14, the “% Improvement on PFPQPQQPF (SEQ ID NO: 68)” value was 110%.
With B15 the “% Improvement on PFPQPQQPF (SEQ ID NO: 68)” value was 239%.
B16 was tested, and the “% Improvement on PFPQPQQPF (SEQ ID NO: 68)” value was 83%.
With B17 the “% Improvement on PFPQPQQPF (SEQ ID NO: 68)” value was 104%.
For B18, the “% Improvement on PFPQPQQPF (SEQ ID NO: 68)” value was 86%.
With B19 the “% Improvement on PFPQPQQPF (SEQ ID NO: 68)” value was 208%.
In the case of B20, the “% Improvement on PFPQPQQPF (SEQ ID NO: 68)” value is reported as 128%.
For B21, the “% Improvement on PFPQPQQPF (SEQ ID NO: 68)” value was 118%.
In the case of B22, the “% Improvement on PFPQPQQPF (SEQ ID NO: 68)” value is reported as 105%.
In the case of B23, the “% Improvement on PFPQPQQPF (SEQ ID NO: 68)” value is reported as 82%.
In the case of B24, the “% Improvement on PFPQPQQPF (SEQ ID NO: 68)” value is reported as 234%.
With B25 the “% Improvement on PFPQPQQPF (SEQ ID NO: 68)” value was 29%.
With B26 the “% Improvement on PFPQPQQPF (SEQ ID NO: 68)” value was 110%.
For B27, the “% Improvement on PFPQPQQPF (SEQ ID NO: 68)” value was 120%.
In the case of B28, the “% Improvement on PFPQPQQPF (SEQ ID NO: 68)” value is reported as 105%.
In the case of B29, the “% Improvement on PFPQPQQPF (SEQ ID NO: 68)” value is reported as 89%.
In the case of B30, the “% Improvement on PFPQPQQPF (SEQ ID NO: 68)” value is reported as 101%.
In the case of B31, the “% Improvement on PFPQPQQPF (SEQ ID NO: 68)” value is reported as 141%.
For B32, the “% Improvement on PFPQPQQPF (SEQ ID NO: 68)” value was 22%.
In the case of B33, the “% Improvement on PFPQPQQPF (SEQ ID NO: 68)” value is reported as 191%.
For B34, the “% Improvement on PFPQPQQPF (SEQ ID NO: 68)” value was 92%.
With B35 the “% Improvement on PFPQPQQPF (SEQ ID NO: 68)” value was 149%.
In the case of B36, the “% Improvement on PFPQPQQPF (SEQ ID NO: 68)” value is reported as 184%.
For B37, the “% Improvement on PFPQPQQPF (SEQ ID NO: 68)” value was 84%.
